The record followed here is paper PMC10745820, “Bode Phase Angle Signaling of a TB Disease Biomarker”.

The target of the data set is interferon gamma (IFN-γ) (UniProt P01579 24-161). Briefly: electrochemical impedance aptasensor (Bode phase angle); spiked pleural fluid, IFN-γ 0.2-2.2 pg/mL; linear 0.2-1.2 pg/mL; LOD 0.09 (abstract) or 0.11 pg/mL; no Kd; aptamer-free control sensor only slight change; Aptamer folded in 0.1 M phosphate buffer, 10 mM KCl, 2 mM MgCl2 (90 °C 10 min, 4 °C 5 min, RT 10 min); IFN-γ in spiked pleural fluid; EIS in phosphate buffer/PBS pH 7.4; binding temperature not stated. To be noted: chain copies: 2.
Sequence of interferon gamma (IFN-γ) (P01579 24-161): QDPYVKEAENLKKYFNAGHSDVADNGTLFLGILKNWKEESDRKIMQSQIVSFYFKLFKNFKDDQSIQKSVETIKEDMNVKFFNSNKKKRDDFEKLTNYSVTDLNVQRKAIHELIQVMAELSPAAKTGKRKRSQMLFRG

B1: 29-mer anti-IFN-γ aptamer (ssDNA)
DNA: CGGCGAAGGCACGTGTGGGGTGGTCGCGT
modifications: 5' thiol (5ThioMC6-D, printed as 5thiolMCS-D)
On to B1, for which the binding result was “binds”.
